Measured values published in publication PMC4770247.
Where a chain is given by its changes, count along the chain named.

B1: NQO1.ARE (dsDNA)
DNA 1: CCGCAGTCACAGTGACTCAGCAGAATCTGAGCCACCCAACCGCCCAACTT
DNA 2: AAGTTGGGCGGTTGGGTGGCTCAGATTCTGCTGAGTCACTGTGACTGCGG
modifications: 3' biotin on top strand; nick in top strand between nt 33 and 34
B2: 7A (dsDNA)
DNA 1: B1 DNA 1 with C18A
DNA 2: B1 DNA 2 with G33T
modifications: 3' biotin on top strand; nick in top strand between nt 33 and 34

Key:
[1] = target: T1, NRF2;MAFG (human?;human?, UniProt Q16236;O15525 1-605;1-162, |); assay: protein binding microarray, anti-NRF2 detection
[2] = target: T1, NRF2;MAFG; assay: protein binding microarray, anti-NRF2 detection; remark: listed apart in the source

| Binder | binding signal [1] | binding result [2] |
| --- | --- | --- |
| B1 | 1 relative to NQO1.ARE | – |
| B2 | – | binds |
